target: T1, Human LILRB4/CD85k/ILT3 Protein (ECD, His Tag), Sino Biological (human, UniProt Q8NHJ6 22-259); experiment: ELISA, coated LILRB4 ECD-His
T1 construct: extracellular domain; Bought protein; it is not tied to this bought protein; also called LILRB4 protein; not shown: His tag

Binder	binding result
chimeric antibody 5E11-2 (antibody, V domains shown) VH: EVKLEESGGGLVQPGGSMKLSCAASGFTFSDAWMDWVRQSPEKGLEWVAEIRSKPNNHATYYAESVKGRFTISRDDSKSSVYLQMNSLRAEDTGIYYCTRTTDYSMDYWGQGTSVTVSS VL: DIQMTQSPASLAVSLGQRATISCRASQSVSASSYSYMHWYQQKPGQPPKLLIKYASNLQSGVPARFSGSGSGTDFTLNIHPVEEEDSATYYCQHSWEIPRTFGGGTKLEIK	binds
chimeric antibody 1A2-7 (antibody, V domains shown) VH: QVQLQQPGAELVKPGASVKLSCKASGYTFTSYWMHWVKQRPGQGLEWIGEINPSNGRTNYNEKFKSKATLTVDKSSSTAYMQLNSLTSEDSAVYYCARDRYDEGNAMDYWGQGTSVTVSS VL: DIVMTQTTSSLSASLGDRVTISCRASQDITNYLNWYQQKPDGTVKLLIYYTSRLHSGVPSRFSGSGSGTDYSLTISNLEQEDIATYFCQQGDTLPRTFGGGTKLEIK	binds

Further lines, results first:

binding result	Binder
binds	chimeric antibody 3G9-1 (antibody, V domains shown) VH: QVQLQQPGAELVKPGASVKLSCKASGYTFTSYWMHWVKQRPGQGLEWIGEINPSNGRTNYNEKFKSKATLIVDKSSSTAYMQLSSLTSEDSAVYYCARGIYYGYDYAMDYWGQGTSVTVSS VL: DIQMTHTTSSLSASLGDRVTISCRASQDISNYLNWYQQKPDGTVKLLIYYTSRLHSGVPSRFSGSGSGTDYSLTISNLEQEDIATYFCQQGNTLPPTFGGGTKLEIK
binds	chimeric antibody 3A2-18 (antibody, V domains shown) VH: EVQLQQPGAELVKPGASVKLSCKASGYTFTSYWMHWVKQRPGQGLEWIGEINPSNGRTNYNEKFKSKATLTVDKSSSTAYVQLNSLTSEDSAVYYCARDRYDEGNAMDYWGQGTSVTVSS VL: DIVMTQTTSSLSASLGDRVTISCRASQDITNYLNWYQQKPDGTVKLLIYYTSRLHSGVPSRFSGSGSGTDYSLTISNLEQEDIATYFCQQGDTLPRTFGGGTKLEIK

Reference: patent EP4553085A1 (Hangzhou Sumgen Biotech Co., Ltd., dated 2025)
